Experimental data as given in PMC2724277.

B1: rrn cac-boxA-spacer (ssRNA)
RNA: CACUGCUCUUUAACAAUUUA
B2: nutR boxA-spacer (ssRNA)
RNA: CGCUCUUACACAUUCCA
B3: nutL boxA-spacer (mut) (ssRNA)
RNA: CGCUCUUAAAAAGGAA
B4: nutR spacer (ssRNA)
RNA: CACAUUCCA
B5: nutL boxA-spacer (ssRNA)
RNA: CGCUCUUAAAAAUUAA
B6: nutR boxA16-spacer (ssRNA)
RNA: CGCUAUUACACAUUCCA
B7: rrn spacer (III) (ssRNA)
RNA: ACAAUUUA
B8: nutR boxA5-spacer (ssRNA)
RNA: CUCUCUUACACAUUCCA
B9: nutR boxB (structured_RNA)
RNA: AGCCCUGAAAAAGGGC
B10: nutR boxA (same sequence as nutL boxA) (ssRNA)
RNA: CGCUCUUA
B11: nutL spacer (ssRNA)
RNA: AAAAUUAA

Molecular target: NusA-SKK (Escherichia coli, UniProt P0AFF6 132-348)
Experiment: fluorescence anisotropy

NusA-SKK, sequence (P0AFF6 132-348): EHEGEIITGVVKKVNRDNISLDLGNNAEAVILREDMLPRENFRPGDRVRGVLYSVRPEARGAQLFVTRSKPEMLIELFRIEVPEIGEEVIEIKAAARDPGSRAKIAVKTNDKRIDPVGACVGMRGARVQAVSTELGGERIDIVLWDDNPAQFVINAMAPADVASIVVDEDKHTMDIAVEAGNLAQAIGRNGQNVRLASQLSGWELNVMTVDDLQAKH

Row | Binder | Kd | binding result
1 | B1 | 14 ± 0.2 µM | 
2 | B2 | 126 ± 4 µM | 
3 | B3 |  | no binding
4 | B4 | 137 ± 17 µM | 
5 | B5 | 71 ± 4 µM | 
6 | B6 | 106 ± 4 µM | 
7 | B7 | 71 ± 3.3 µM | 
8 | B8 | 124 ± 7 µM | 
9 | B9 |  | no binding
10 | B10 |  | no binding
11 | B11 | 24 ± 2.2 µM | 
